# Measurements taken from the DeepSol protein solubility set.
# Test: soluble on expression in E. coli; label from the status in PepcDB or PDB records
row,Sequence,soluble on expression in E. coli
1,MNITATSLDSEDELSIKYMDAVDNINILKRYGCDIQHEVDVHTMSFDNSLSLQRYDRIVFNFPHAGSRFFGRELSSRAIESHKELVRGFLENAKEMLEEDGEIHITHKTTYPFSDWGIKKLGKGEGLKLLKKSKFELSHYPGYITKRGSGGRRSDDYFPVDVDPCDLKGFEVLEIYHPSMSDGFVNSVMVARKLTDRLIKYEWCTGTRSLNSLKKTRQTEPDQFNKREINRSGPGQVAEEEEEVVAVMMMMTSLGGGAGGGGGGGGSGGGRFVTYPPPLSVPPSAPQSPNFSGGLRSQPSFLVEQEKYLSELLAERHKLTPFLPVLPHVCRLMNQEILRVTTLLENALSQSRFDHPSPLASGGIFQNSRADMNGWASQFPSERSVSSSPAPNWLNSPGSSSGLIVKRTIRVDIPVDKYPNYNFVGRLLGPRGNSLKRVEASTDCRVLIRGRGSIKDPIKEDMMRGKPGYEHLNEPLHILVEAELPIEIVDARLMQAREILDDLLTPVEETHDFYKKQQLRELALLNGSLREEGSPMSGSISPYNSLGMKRAKTRG,soluble
2,MNITIVLGDKIPSIKYGGTQRVMWYLGKELNKRGHKVTFIAGKGSSCPFAKVIELDPSVNLNTQIPTDADIVHFNIPVPEGITKPHLLTIHGNGIPANADRNIVFVSRNHAQRLGSESFVYNGLDWDDYGPANLTLSRKNYHFLGKAAWKVKNIKGAIAVVQSIKNAQLDVLGGYRLNLKMGFRFTWNPRIHFHGMVDDSKKKVIIEQSKGLIFPVTWHEPFGLAITESLYFGAPVFGTPYGALPELVSPEVGFLTAHGQEMAEHIQSAQYSPKVCHEYARDLFNSSVMAEAYLKKYETVLNGEPLNKEVPHIIDIARRLPWD,not soluble
3,MNIVCIDTCFSSVAITAQGNAGTFTSVFTPAKARHSAILIPAIETAVKQAGFSINETDVLVCPQGPGGFTGLRLAYSTAKAIQLQTNARFFCVSILEALCSKYGDKNQFLSVIDAKRDCFYVQAFENKKPISEAFDIRAEDALKLIDKNKKTIICGFGTEKFNEEAGASIESNNITLIEADKETLSKTLLDCFLTNKNCKKVEDHEGPVYIRKSDAEY,not soluble
4,MNKAAQKVLKLLGHTEIARVNSSCGAEQEYFLVDSNFAHQRPDLLLAGRTLFGKSPAKGQEFDDHYFGAIPERVQIFMQDVEAQLYKLGIPAKTRHNEVAPGQFEIAPVFEAANVASDHQQLIMTTLKTTAKKHGFMCLLHEKPFAGINGSGKHVNWSVGNATQGNLLDPGDSPHDNAQFLVFCGAVIRGVHKFGPLMRAVIANASNDHRLGANEAPPAIMSVYLGSQLEEVFEQIKNGTVSESKKKGVMDLGVAVLPELTKDAGDRNRTSPFAFTGNRFEFRAVGSSQSVSGPLVALNTILADSLGWIGDRLESELAKGLEISEAILTVLKEIMNDHGSVIFGGNGYSEEWHREAVQERGLRNLPTTADALPVLKEDEVVALFDQLKVLTPIELESRFEVYAEQYIKSIEV,not soluble
5,MNKEEQYLLFALSAPMEILNQSCKPAHDSPKMYTGIKEFDLSSSWGINNRDDLIQTIYQMTDDGHANDLAGLYLTWQRSSPEEWKALIAGGSERGLIYTQFVAQTAMCCGEGGIKAWDYVRMGFLSRAGVLNNWLTEEESLWLQSRVYARAHHYYHSWMHYFSAYSLGRLYWQSSQCEDNASLREALTLYKYDSAGSRMFEELAAGSDRFYATLPWQPLTVQPECPVTLKDVSDL,not soluble
6,MNKETLQLFRTLTELQGASGFEHDVRRFMKQELSKYADEIVQDGLGSVFGLKKGDETGPRVLVAGHMDEVGFMVTQITKNGMLRFQTLGGWWSQVLLAQRVQVMTKNGPVIGVVGSIPPHLLSDAQRAKPMDIKNMLIDIGADSYEDAIEIGVKPGQQIVPICPFTPMANEKKIMAKAWDNRYGCGLAIELLKELKDETLPNTLYSGATVQEEVGLRGAQTAANMIQPDIFYALDASPANDASGDKTQFGQLGKGALLRIYDRTMVTHRGIREFILDTAETNNIPYQYFISQGGTDAGRVHTSNSGIPSAVIGVCARYVHTHASILHVDDYAAAKELITKLVRTTDKTTLETIKNNA,not soluble
7,MNKIIISIGREFGSGGRRIGELLAKELEVPCYDRHLIEEAACRSGFETKELEEADEMKANRFLFKVPAKSNQYTGYGKPMNDTLFAIQSELIRKYADAGSCVIVGRCADKVLEKQEGLISVFIYAPLEARVEEIRRRYETDGEEALYLVRQADKIRRNYYNYYAKKKWGDRSSYDLMIDSSHFTDREVAAMIRAVSEERKAEWEENKFSTPQG,not soluble
8,MNKKEIFKLAKGFRGRAKNCIRIARERVEKALQYSYRDRRNKKREMRGLWIERINAGSRQHGVNYGNFIHGLMKENIQLNRKVLSELSMHEPYSFKALVDVSRKSFPGNKNVVQASRKVDISSINA,soluble
9,MNKLDTSQLKIASMGGGHGLFQTLRAVRQLNPASIDAIVTVADDGGSSGRIRRELGQIPPGDLRMALAALAPFDDEGLQWETLLQHRFGGHGALAGHAVGNLIIAGLCDTLGSEIAALDAVAKVIKAEGRVLPACAEPLEIAAEVSGLDDDPRIMREVIGQVAVASTPGTVRRVRLIPERPEATEESVEAIENADLVTLGPGSWFSSVIPHVLVPGIPTALATTKALRVVVLNLSPEPGETAGFTAERHIHILSQHAQTLRADVILVDEGLIPHKGERVHLERAAAVLGAQISYHDLSETDPSGRRIHRHDPAKLAEALRLQLLEHHHHHH,soluble
10,MNKLYIGNLSENAAPSDLESIFKDAKIPVSGPFLVKTGYAFVDCPDESWALKAIEALSGKIELHGKPIEVEHSVPKRQRIRKLQIRNIPPHLQWEVLDSLLVQYGVVESCEQVNTDSETAVVNVTYSSKDQARQALDKLNGFQLENFTLKVAYIPDEMAAQQNPLQQPRGRRGLGQRGSSRQGSPGSVSKQKPCDLPLRLLVPTQFVGAIIGKEGATIRNITKQTQSKIDVHRKENAGAAEKSITILSTPEGTSAACKSILEIMHKEAQDIKFTEEIPLKILAHNNFVGRLIGKEGRNLKKIEQDTDTKITISPLQELTLYNPERTITVKGNVETCAKAEEEIMKKIRESYENDIASMNLQAHLIPGLNLNALGLFPPTSGMPPPTSGPPSAMTPPYPQFEQSETETVHLFIPALSVGAIIGKQGQHIKQLSRFAGASIKIAPAEAPDAKVRMVIITGPPEAQFKAQGRIYGKIKEENFVSPKEEVKLEAHIRVPSFAAGRVIGKGGKTVNELQNLSSAEVVVPRDQTPDENDQVVVKITGHFYACQVAQRKIQEILTQVKQHQQQKALQSGPPQSRRK,soluble
11,MNKLYIGNLSPAVTADDLRQLFGDRKLPLAGQVLLKSGYAFVDYPDQNWAIRAIETLSGKVELHGKIMEVDYSVSKKLRSRKIQIRNIPPHLQWEVLDGLLAQYGTVENVEQVNTDTETAVVNVTYATREEAKIAMEKLSGHQFENYSFKISYIPDEEVSSPSPPQRAQRGDHSSREQGHAPGGTSQARQIDFPLRILVPTQFVGAIIGKEGLTIKNITKQTQSRVDIHRKENSGAAEKPVTIHATPEGTSEACRMILEIMQKEADETKLAEEIPLKILAHNGLVGRLIGKEGRNLKKIEHETGTKITISSLQDLSIYNPERTITVKGTVEACASAEIEIMKKLREAFENDMLAVNQQANLIPGLNLSALGIFSTGLSVLSPPAGPRGAPPAAPYHPFTTHSGYFSSLYPHHQFGPFPHHHSYPEQEIVNLFIPTQAVGAIIGKKGAHIKQLARFAGASIKIAPAEGPDVSERMVIITGPPEAQFKAQGRIFGKLKEENFFNPKEEVKLEAHIRVPSSTAGRVIGKGGKTVNELQNLTSAEVIVPRDQTPDENEEVIVRIIGHFFASQTAQRKIREIVQQVKQQEQKYPQGVASQRSK,soluble
12,MNKRENPIYKVIFLNQGQVFEMYAKQIYQSDLWGFLEIEEFVFGERTQVVVDPSEEKLKAQFEGVLRSFVPMHAIVRIDEVERLGTPKISEAKGAGNVMPFPMPMPGKSD,not soluble
13,MNKVAQYYRELVASLNERLRNGERDIDALVEQARERVIKTGELTRTEIDELTRAVRRDLEEFAMSYEESLKEESDSVFMRVIKESLWQELADITDKTQLEWREIFQDLNHHGVYHSGEVVGLGNLVCEKCHFHLPIYTPEVLTLCPKCGYDQFQRRPFEP,not soluble
14,MNKVVLLCRPGFEKECAAEITDKAGQREIFGFARVKENAGYVIYECYQPDDGDKLIRELPFSSLIFARQWFVVGELLQHLPPEDRITPIVGMLQGVVEKGGELRVEVADTNESKELLKFCRKFTVPLRAALRDAGVLANYETPKRPVVHVFFIAPGCCYTGYSYSNNNSPFYMGIPRLKFPADAPSRSTLKLEEAFHVFIPADEWDERLANGMWAVDLGACPGGWTYQLVKRNMWVYSVDNGPMAQSLMDTGQVTWLREDGFKFRPTRSNISWMVCDMVEKPAKVAALMAQWLVNGWCRETIFNLKLPMKKRYEEVSHNLAYIQAQLDEHGINAQIQARQLYHDREEVTVHVRRIWAAVGGRRDER,soluble
15,MNLAKRILQGEQLTKETVLKIYEDTNIDTLDLLNEAYILRKHYFGKKVKLNMILNAKSGICPENCGYCGQSRDIKQKQRYALIPEEQIIDGAKVAHDNHIGTYCIVMSGRGPSDKEVDHISNTVRTIKSQHPQLKICACLGLTNDEQAKKLKSAGVDRYNHNINTSENYHDNVVTTHSYKDRTDTIELMKANNISPCSGVICGMGESNQDIVDMAFALKEMDADSIPINFLHPIKGTKFGSMDDLTPMKCLRIVALFRLINPTKEIRIAGGREVNLRSLQPLALKAANSIFVGDYLITGGQPNQLDYDMINDLGFEIDYDTCENKENKNDVSRAN,not soluble
16,MNLEMLESQPVPEIDTLREEIDRLDAEILALVKRRAEVSKAIGKARMASGGTRLVHSREMKVIERYSELGPDGKDLAILLLRLGRGRLGH,soluble
17,MNLGFRVTGKFVRELLDVLDEIAEEIRQEEKEKYPYTEWERKREVVKERLRKLPEYVREAISVITVQKRVGRPKKVDLEKRVMLFLFARLMDKSNRDIEELLELFEPLFGIKVSYKTIERLYSDEEVRMALHNLFILLLREEGVSGDFSGDGTGYSLTITKHYRSNPKRKGKDFRYVFRIIDIDTGMYVGFGYSDRSEKDAFEKALGMLKSMGVKVNSISLDKYYSSRKTLRLFDAETAVYVIPKRNLARIGFDWLRVIERIVEAPYRFLKRYFKRNLSEAGFSADKRRFGWLIRQRREDRREMALFAVGLWHNVFAVRVVR,not soluble
18,MNLTNYHSHTLYCDGRAGMEDFIRFAISRGFTSYGISSHAPLPFPTHWTMEWDRMDDYLDEFTRMKEKYASEIELAVGLEIDYLNEDSNPSVRRFQELPLDYRIGSVHLLYNDRDEVVDIDVCAEVFRDIVDQHFGGDLDRVIHLYYDRLLRMVELGGFDILGHADKMHHNAACYRPGLLDESWYDALIHDYFSAVAAKGYIVEINTKALHHLNTFFPNERYFPLLKELGVRVQVNSDSHYPERINSGRPEALAALQKAGFETVTEWHGGKWIEMPLLEHHHHHH,soluble
19,MNMPKRYSEMTPHELREEIGALKEQAVKAEQLGIVNEFDVLMRKMAMARAYMTDINKFHIGETYELVEEPGVLFKITYFNGVFAWGYKQNDNEEIGIPISLLQEK,not soluble
20,MNNASGGTHSKGTATTGGTTTQAAKTNLTTTAAKGRTATPSLDEETRKRLMVEGKCFHCFKPGHISPNYLEKQIKQLKVLEQPVPEEQGVSENN,not soluble
21,MNNIQTNTRDQDSLEYILQLELDNIRLFLELLEHERNLLAAGNLDDLALLVADKDRLIDQFARLDMRRNRFLNAAGLPEGTQGMNAWVSGSDEESTVARDWEELLGLADLAKQLNQTNAVITSSWLQYTRRTLNALHSAAGRPPLYNTKGQTT,not soluble
22,MNNKKINFGCCNWTRDAMKWRQRFEAADVTWVSRTNNGPADLLAKHRLPDNCSFQYHYYVPPFIVSALHCNHS,soluble
